Data on 2 molecules can be found in article doi:10.1101/2022.10.19.512833 (bioRxiv, 2022).

The experiment has as its target T1, human TSG101 UEV (1-145) domain (human, UniProt Q99816 1-145).
T1 sequence (looked up): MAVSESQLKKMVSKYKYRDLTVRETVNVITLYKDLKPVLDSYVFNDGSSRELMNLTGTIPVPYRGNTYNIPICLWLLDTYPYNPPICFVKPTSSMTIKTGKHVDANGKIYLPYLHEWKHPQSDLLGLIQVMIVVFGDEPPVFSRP
Kind of experiment: fluorescence polarisation.

Take LQSRPEPTAPPEESFR (peptide, UniProt P04591 449-464, looked up) [GAG (HIV-1) residues 449-464, unlabeled peptide]: the Kd turned out to be 15.3 µM.
As for APQGLIPTAPPADPAA [GAG (HIV-2) peptide, residues 450-465, unlabeled], the figure is 6 µM.
